Publication PMC6704068

Biological target: Saccharomyces cerevisiae alcohol dehydrogenase (Saccharomyces cerevisiae) (UniProt P00330)
Assay: SEC + native MS

stoichiometry N: 4
Substance: Saccharomyces cerevisiae alcohol dehydrogenase (from UniProt P00330 1-348) (enzyme)
